Test results from PMC6399494.

How the values were obtained:
[1] = cell-surface biotinylation and confocal microscopy, HEK293; conditions: glycan gained; control: wild type full-length LDLR
[2] = immunoblot, Hepa1c1c7 lysate, normalised to actin; conditions: glycan gained; control: wild type full-length LDLR
[3] = immunoblot of mature LDLR form, HEK293; conditions: glycan lost; control: DMSO-treated cells

| Substance | localisation_or_trafficking [1] | expression_or_secretion [2] | localisation_or_trafficking [3] |
| --- | --- | --- | --- |
| LDL receptor (LDLR): D203N | no change | no change | – |
| LDL receptor (LDLR): tunicamycin, WT LDLR | – | – | no change |
